Biological target: His6–Drp1, full-length Drp1-short isoform
Test: co-sedimentation

Substance: His6–Drp1, full-length Drp1-short isoform (enzyme)
- percent of His6–Drp1 in the pellet (with GMP–PCP and His6–cyclin C): 34%
- percent of His6–Drp1 in the pellet (with GMP–PCP): 16%

From article PMC6589575
